Measured values taken from patent US6861578B1, “Method for plant protection against insects or nematodes by transformation with a nucleic acid encoding equistatin” (Plant Research International B.V., priority 1997, dated 2005).

Legend:
thrips females = experiment: Oviposition rate of thrips females in Murai cages; format: in vivo, Frankliniella occidentalis
Description: A sample of 142 μM recombinant equistatin purified as described in example 4 was assayed for activity towards thrips. Sample was acidified with HCl to pH 3 to stabilize the equistatin protein. Controls contained acidified water or 2.5 mg/ml BSA dissolved in acidified water. The oviposition rate of thrips females was assayed using so-called Murai cages. Briefly, perspex tubes closed on side with a fine gauze were inoculated with 10 females and bee pollen. Tubes were closed with parafilm and 300 μl fluid was placed on top of the parafilm. A second layer of parafilm enclosed the fluid. Pollen and sample fluid were replaced every day for two days. Eggs deposited in the liquid sample were counted on day 2.

[1] = system: Colorado potato beetle proteases; experiment: Protease activity of Colorado potato beetle larval gut extract at pH 3, FITC-hemoglobin; format: biochemical, Leptinotarsa decemlineata; design: inhibition of total protease activity / increase of inhibition by addition of equistatin to E64 / increase of inhibition by addition of equistatin to pepstatin: concentration or dose not given beside the values
Description: Adult western flower thrips (Frankliniella occidentalis) and leafmirer flies (Liriomyza trifolii) adult were harvested from a culture maintained on chrysanthemum plants and complete thrips and flies were homogenized in extraction on buffer (200 mM β-alanine-HCl, pH 3.5) in a volume of 5 times the weight of the insects. The buffer pH was at the previously determined pH optimum of protease activity towards hemoglobin. Final instar Colorado potato beetle larvae maintained on potato plants as described in example 5 were checked for gut aspartic protease activity by preparing a total gut extract in pH 3 buffer which is optimal for Colorado potato beetle aspartic proteases (200 mM glycine, pH 3). Guts were homogenized in 100 μl buffer per gut. Third instar western corn rootworm larvae maintained on corn roots were used to remove the guts. Ten guts were homogenized in 100 μl water and spinned twice to remove insoluble material. Two types of buffers were used in the enzymatic assay. One with a pH presumably favoring cysteine proteases (50 mM MES, pH 6.5; 0.6 mg/ml L-cysteine) and one for detecting aspartic proteases (200 mM glycine, pH 3). Supernatants were stored at −20° C.
2 μl gut extract was combined with 2 μl inhibitor (2 mM pepstatin in methanol, 4 mM E64 in water, 2 mg/ml recombinant equistatin in water. The concentration of the other proteinaceous inhibitors was not known exactly). Appropriate buffers were added to a final volume of 100 μl. After 15′ preincubation 20 μl substrate (5 mg/ml FITC-hemoglobin) was added and incubated for 30-45 min at 37 C.
Reaction was stopped by the addition of 100 μl 10% TCA. Tubes were centrifuged and 100 μl supernatant mixed with 100 μl 10 N NaOH was measured on a fluorimeter for the extent of hemoglobin hydrolysis. Measurements were done in duplicate on one (thrips, leafminer and western corn rootworm), or three (Colorado potato beetle) different gut extracts and varied by a maximum of +/−5%.

[2] = system: endoprotease activity of Colorado potato beetle larval gut extracts; experiment: Narrow spectrum endoprotease activity of Colorado potato beetle gut extract, Z-Arg-Arg-pNA; format: biochemical, Leptinotarsa decemlineata
Description: Guts of final instar Colorado potato beetle larvae reared on methyl jasmonate induced plants were isolated and extracted essentially as described (Bolter and Jongsma, J. Insect Physiol. 41: 1071-1078). In these gut extracts the proteases that are sensitive to the protease inhibitors of potato are already complexed. The residual protease activity is composed of potato protease-inhibitor-insensitive proteases which were induced in response to the methyl jasmonate induced potato inhibitors. These proteases are the proteases that render the beetle larvae insensitive to protease inhibitor defense of the potato plant. Wle tested a broad range of different cysteisie protease inhibitors for activity specifically against these induced potato protease inhibitor-insensitive cysteine protesses. Nearly all of these inhibitors were purified at the Jozef Stefan Institute in Slovenia. Testing their potential against Colorado potato beetle was done using both general protein substrates (azocasein, table 2) as well as specific synthetic substrates (L-Arg-pNA, table 3; pGlu-Phe-Leu-pNA, table 4; Z-Phe-Arg-pNA, table 5; Z-Arg-Arg-pNA, table 6). In specific cases inhibitors were tested at two concentrations, eauimolar and in excess to the protease, in order to obtain an indication of the tightness of the complex. […] Importantly, this class of inhibitors was capable of inhibiting nearly all general cysteine protease activity. The equistatin peptide molecule and a functional derivative thereof were not very active against the aminopeptidase-like cysteine protease activity. […] The best combination of inhibitors for full toxicity against the Colorado potato beetle would therefore be a combination of equistatin or p41 invariant chain fragment and stefin-like inhibitors.

B1: equistatin: cysteine/aspartic protease inhibitor from sea anemone Actinia equina with three type I repeated thyroglobulin domains; purified or recombinant from E. coli (protein)
chain: SLTKCQQLQASANSGLIGTYVPQCKETGEFEEKQCWGSTGYCWCVDEDGKEILGTKIRGSPDCSRRKAALTLCQMMQAIIVNVPGWCGPPSCKADGSFDEVQCCASNGECYCVDKKGKELEGTRQQGRPTCERHLSECEEARIKAHSNSLRVEMFVPECLEDGSYNPVQCWPSTGYCWCVDEGGVKVPGSDVRFKRPTC
modifications: left off: large carriers; small tags and cut ends
notes: purified or recombinant from E. coli
B1 was tested, and the “Oviposition rate, eggs per female per day” value (thrips females; 142 μM recombinant equistatin, pH 3, eggs counted on day 2) was 0.3 eggs per female per day, the “Oviposition rate, relative percentage” value (thrips females; relative to BSA diet = 100%) was 17% and the “increase of inhibition by addition of equistatin to E64” value ([1]; Colorado potato beetle, pH3) was 42%. The “increase of inhibition by addition of equistatin to pepstatin” value ([1]; Colorado potato beetle, pH3) was 12%, the “inhibition of both aspartic and cysteine protease activity” value ([1]; Colorado potato beetle, pH3) was “more than 50%” and the “inhibition of total protease activity” value ([1]; Colorado potato beetle, pH3) was 62%. The residual protease activity ([1]; colorado potato beetle pH 3, recombinant equistatin) was 36%, the “% of residual activity, equimolar” value ([2]; equimolar) was 20% and the “% of residual activity, excess inhibitor” value ([2]; excess inhibitor) was −5%.
